Laboratory results: patent US20090215098A1, “QUANTIFICATION OF ENZYME ACTIVITY BY MASS SPECTROMETRY” (UCL BUSINESS PLC., priority 2006, published 2009)

What was measured:
Akt [1] = test: MS quantification of Akt activity in B lymphoma cell lysates treated with PI3K inhibitors; format: cell-based, mouse; conditions: B lymphoma cell line WEHI-231; varying concentrations of inhibitor; FIG. 3A
Description: (§1) The activity of recombinant Akt/PKB was measured using the methods of the invention. Recombinant Akt/PKB was purchased from Upstate (Hampshire, UK). A 5.0 μL aliquot of […] (SEQ ID. NO: 7), 7.5 mM magnesium chloride, 0.15 mM EDTA, 7.5 mM β-glycerol phosphate, 0.1 mM sodium orthovanadate, and 0.1 mM DTT was mixed with 2.5 μL solution of Akt/PKB of various amounts: 0.004, 0.04, 0.2, 0.8, 4, 20, and 80 ng. The incubation time of each reaction was from between 2 minutes to 18 hours. Reactions were stopped with the addition of 7.5 μL of a 1% trifluoroacetic acid solution containing 1 pmol/μL internal standard (mass labeled SEQ ID NO: 39). Aliquots (0.5 μL out of a total of […]) from each reaction were analyzed by either MALDI-TOF MS (Ultraflex, Bruker) or LC-MS/MS (Ultimate HPLC, Dionex, connected to a Micromass/Waters Q-TOF instrument) using a nanoESI interface. Reaction products were analyzed by LC-MS/MS without further treatment. […]
(§2) Mouse WEHI-231 B lymphoma cell line was cultured as described in Cutillas et al., Mol Cell Proteomics 4:1038-51 (2005), incorporated herein in its entirety by reference. […] After centrifugation at 20,000×g, cell lysates were ready to use as enzyme sources. The enzyme activity of Akt in varying amounts of cell lysate (0.033, 0.067, 0.33, and 0.67 μg) was measured in the protocol outlined in example 2. […]

[2] = test system: T1, S6 Kinase/Rsk peptide substrate (SEQ ID NO: 5)
T1 sequence: RRRLSSLRA

[3] = test system: T2, Akt peptide substrate (SEQ ID NO: 7)
T2 sequence: RPRAATF

[4] = test system: Protein Kinase C peptide substrate (SEQ ID NO: 23)
[5] = test system: T3, PKC peptide substrate (SEQ ID NO: 12)
T3 sequence: QKRPSQRSKYL

Akt [6] = test: MS quantification of activity of Akt immunoprecipitates from B lymphoma cells; format: cell-based, mouse; conditions: addition of PI3K inhibitor, FIG. 3B
Description: as §1, §2

Akt [7] = test: Akt activity in B cell lysates in the presence of PI3K activators with or without inhibitor; format: cell-based, mouse; conditions: PI3K activators (sodium pervanadate and anti-IgM) present; with vs without inhibitor; FIG. 3C
Description: as §1, §2

[8] = test system: T4, MAP Kinase peptide substrate (SEQ ID NO: 10)
T4 sequence: APRTPGGRR

## Cc1ccccc1-n1c(Cn2cnc3c(N)ncnc32)nc2cccc(C)c2c1=O [IC87114]
Akt [1]
  Activity of the Akt enzyme in cell lysates: decreased enzyme activity

## recombinant S6 p70 kinase
[2]
  extracted mass chromatogram of enzymatic product (LC-MS), time points 0, 10, 30, 60 min: b) corresponds to phosphylation of SEQ ID NO: 5 by S6 p70 kinase

## recombinant Akt/PKB
[3]
  enzymatic activity (phosphorylated peptide product quantified by MALDI-TOF MS or LC-MS/MS): capable of detecting enzymatic activity down to the zeptommole range

## recombinant PKC
[4]
  extracted mass chromatogram of enzymatic product (LC-MS), time points 0, 10, 30, 60 min: d) corresponds to phosphorylation of SEQ ID NO: 23 by PKC
[5]
  extracted mass chromatogram of enzymatic product (LC-MS), time points 0, 10, 30, 60 min: a) corresponds to phosphorylation of SEQ ID NO: 12 by PKC

## COC[C@H]1OC(=O)c2coc3c2[C@@]1(C)C1=C(C3=O)[C@@H]2CCC(=O)[C@@]2(C)C[C@H]1OC(C)=O [WM]
Akt [6]
  Activity of Akt immunoprecipitates: similarly affected
Akt [7]
  Activity of Akt in B cell lysates: sensitive to the presence or absence of the inhibitor
Akt [1]
  Activity of the Akt enzyme in cell lysates: decreased enzyme activity

## recombinant Erk
[8]
  extracted mass chromatogram of enzymatic product (LC-MS), time points 0, 10, 30, 60 min: c) corresponds to phosphorylation of SEQ ID NO: 10 by Erk
